Measured values from PMC2213532 (The Journal of Experimental Medicine, 2000).
Residues, ends and D or L forms follow the SMILES beside them.

Key:
soluble H-2D^b [1] = assay: radioligand binding
soluble H-2D^b [2] = target: soluble H-2D^b (Mus musculus, UniProt P01899); assay: biochemical; assay type: binding
Chain of soluble H-2D^b (Mus musculus, UniProt P01899) (P01899 25-362): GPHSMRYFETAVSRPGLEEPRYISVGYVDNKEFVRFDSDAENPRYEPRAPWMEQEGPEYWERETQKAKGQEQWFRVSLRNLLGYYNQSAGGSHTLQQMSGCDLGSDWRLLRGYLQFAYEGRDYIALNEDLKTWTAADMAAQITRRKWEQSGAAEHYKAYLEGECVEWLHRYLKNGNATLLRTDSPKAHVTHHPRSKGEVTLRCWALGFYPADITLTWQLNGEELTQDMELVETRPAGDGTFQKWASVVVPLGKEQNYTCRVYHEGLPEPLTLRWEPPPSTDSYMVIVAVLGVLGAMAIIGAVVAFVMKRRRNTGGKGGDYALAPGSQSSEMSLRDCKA
Chain of soluble H-2D^b (Mus musculus, UniProt P01899) (P01887 21-119, further chain): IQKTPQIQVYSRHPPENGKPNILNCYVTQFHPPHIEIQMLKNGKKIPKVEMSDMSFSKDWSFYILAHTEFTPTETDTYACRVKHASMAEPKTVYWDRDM

Molecule | IC50 (soluble H-2D^b [1]) [nM] | IC50 (soluble H-2D^b [2]) [nM]
NP_(366-374) peptide of A/Memphis/102/72 | 6 | 
CSCC[C@H](NC(=O)[C@@H](NC(=O)[C@H](CC(=O)O)NC(=O)[C@H](CCSC)NC(=O)[C@H](CC(N)=O)NC(=O)[C@H](CCC(=O)O)NC(=O)[C@H](CC(N)=O)NC(=O)[C@H](CO)NC(=O)[C@H](C)N)[C@@H](C)O)C(=O)O [NP366-374] (H-ASNENMDTM-OH) |  | 6
